The values that follow come from patent publication US20190064149.

The subject of data set [1] is EphA2 having Myc-labeled C-terminal.
A further data set has as its target E-cadherin (UniProt P12830).
Data set [2] deals with EphA2 (full-length type EphA2).
The test system of data set [3] is processing-resistant EphA2 mutant (EphA2 deleted at a site to be processed by MT1-MMP, FLAG-labeled C terminal).

E-cadherin, sequence (P12830 155-882): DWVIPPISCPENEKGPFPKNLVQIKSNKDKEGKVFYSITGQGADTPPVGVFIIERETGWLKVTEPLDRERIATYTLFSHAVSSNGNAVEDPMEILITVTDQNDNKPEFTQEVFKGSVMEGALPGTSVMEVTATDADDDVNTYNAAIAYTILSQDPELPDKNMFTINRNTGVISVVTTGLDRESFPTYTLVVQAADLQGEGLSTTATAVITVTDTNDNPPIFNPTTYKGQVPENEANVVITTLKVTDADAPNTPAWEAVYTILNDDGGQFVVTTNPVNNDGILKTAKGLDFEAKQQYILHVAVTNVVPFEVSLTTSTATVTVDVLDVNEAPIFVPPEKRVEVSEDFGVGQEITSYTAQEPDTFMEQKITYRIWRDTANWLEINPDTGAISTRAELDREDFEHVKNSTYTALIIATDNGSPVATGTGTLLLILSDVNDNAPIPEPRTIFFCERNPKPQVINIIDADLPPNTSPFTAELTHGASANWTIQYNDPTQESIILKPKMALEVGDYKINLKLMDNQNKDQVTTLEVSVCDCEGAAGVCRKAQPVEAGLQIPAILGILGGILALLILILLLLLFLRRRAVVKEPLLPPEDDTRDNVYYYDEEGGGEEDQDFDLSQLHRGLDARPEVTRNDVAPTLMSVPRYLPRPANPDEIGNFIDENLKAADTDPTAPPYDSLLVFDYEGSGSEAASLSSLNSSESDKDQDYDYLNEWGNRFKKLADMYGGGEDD

Consider MT3-MMP, for which the “EphA2 processed fragment, western blotting” value in data set [1] is reported as “a processed fragment of EphA2 (small arrow) was detected only in the MT1-MMP-introduced cells”.
“membrane type-1 matrix metallproteinase (MT1-MMP), expressed in cells”: the “processing of E-cadherin, western blotting” value with E-cadherin is given as “presence or absence of MT1-MMP expression caused no change in the processing of E-cadherin”. Besides, the “65-kDa and 60-kDa processed fragments of EphA2 after MT1-MMP knockdown, IP-western” value in data set [2] was “Due to MT1-MMP knockdown, the 65-kDa and 60-kDa processed fragments of EphA2 disappeared”. The “EphA2 processed fragments, western blotting with Myc antibody” value in data set [1] is “full-length type EphA2 (large arrow) and respective EphA2 processed fragments (small arrow) having a molecular weight of 65 and 60 kDa were detected”. Besides, the “processed state of EphA2, western blotting” value in data set [3] is on record as “the mutant deleted at a cleavage site showed resistance against processing by MT1-MMP”.
With MT2-MMP, the “EphA2 processed fragment, western blotting” value in data set [1] is “a processed fragment of EphA2 (small arrow) was detected only in the MT1-MMP-introduced cells”.
Still for that read-out and setting: in the case of MT5-MMP it was “a processed fragment of EphA2 (small arrow) was detected only in the MT1-MMP-introduced cells”.
